Measurements as given in US20230137139A1, “BIOSYNTHESIS OF CANNABINOIDS AND C[…]” (priority 2020, published 2023).

B1: putative C. sativa CBCAS enzyme: previously disclosed putative C. sativa CBCAS (SEQ ID NO: 15) (protein)
chain: MNCSTFSFWFVCKIIFFFLSFNIQISIANPQENFLKCFSEYIPNNPANPKFIYTQHDQLYMSVLNSTIQNLRFTSDTTPKPLVIVTPSNVSHIQASILCSKKVGLQIRTRSGGHDAEGLSYISQVPFAIVDLRNMHTVKVDIHSQTAWVEAGATLGEVYYWINEMNENFSFPGGYCPTVGVGGHFSGGGYGALMRNYGLAADNIIDAHLVNVDGKVLDRKSMGEDLFWAIRGGGGENFGIIAACKIKLVVVPSKATIFSVKKNMEIHGLVKLFNKWQNIAYKYDKDLMLTTHFRTRNITDNHGKNKTTVHGYFSSIFLGGVDSLVDLMNKSFPELGIKKTDCKELSWIDTTIFYSGVVNYNTANFKKEILLDRSAGKKTAFSIKLDYVKKLIPETAMVKILEKLYEEEVGVGMYVLYPYGGIMDEISESAIPFPHRAGIMYELWYTATWEKQEDNEKHINWVRSVYNFTTPYVSQNPRLAYLNYRDLDLGKTNPESPNNYTQARIWGEKYFGKNFNRLVKVKTKADPNNFFRNEQSIPPLPPRHH
B2: t861585 (protein)
chain: MGNTTSIAGRDCLVSALGGNAGLVAFQNQPLYQTTAVHEYNLNIPVTPAAITYPETAEQIAAVVKCASQYDYKVQARSGGHSFGNYGLGGTDGAVVVDMKYFNQFSMDDQTYEAVIGPGTTLGDVDVELYNNGKRAMAHGVCPTISTGGHFTMGGLGPTARQWGLALDHVEEVEVVLANSSIVRASNTQNQEVFFAVKGAAASFGIVTEFKVRTQPAPGIAVQYSYTFNLGSSAEKAQFIKDWQSFVSAKNLTRQFYTNMVIFDGDIILEGLFFGSKEQYEALRLEERFVPKNPGNILVLTDWLGMVGHALEDTILRLVGNTPTWFYAKSLGFTPDTLIPSSGIDEFFKYIENNKAGTSTWFVTLSLEGGAINDVPADATAYGHRDVLFWVQIFMVSPTGPVSSTTYDFADGLYNVLTKAVPESEGHAYLGCPDPKMANAQQKYWRQNLPRLEELKETLDPKDTFHNPQGILPA
modifications: N- and C-terminal signal peptides

Tests used:
[1] = system: CBCA, THCA, and CBDA production; test: In vivo TS activity assay, Example 1 CBCAS library screen, cultures fed olivetolic acid, LC-MS; assay type: cell-based, S. cerevisiae; details: primary and secondary screen
Source text: To identify CBCAS genes that can be functionally expressed in host cells, a library of approximately 3000 candidate CBCAS genes was designed based on internal codebases and domain knowledge, sampled across enzyme families, ecological niches, and structural homologies. Protein sequences were recoded in silico for expression in S. cerevisiae and synthesized in the integrative yeast expression vector shown in FIG. 5. Each candidate enzyme expression construct was transformed into an S. cerevisiae CEN.PK strain that also expressed a prenyltransferase enzyme capable of catalyzing reaction R^4 in FIG. 2. Strain t616313, expressing GFP, was included in the library screen as a negative control for enzyme activity. […]
An assay to detect TS activity was conducted as follows: each thawed glycerol stock of candidate CBCAS transformants was stamped into a well of YEP+4% dextrose media. […] Optical measurements were taken on a plate reader, with absorbance measured at 600 nm and fluorescence at 528 nm with 485 nm excitation. […] CBCA, THCA, and CBDA production in the samples was quantified via liquid chromatography-mass spectrometry (LC-MS). […]

CBCA production = test: In vivo TS activity assay, Example 4 CBCAS enzymes with and without signal peptides, no pH adjustment; assay type: cell-based; details: strains with (Y) or without (N) N-terminal and C-terminal signal peptides; no pH adjustment at Day 4; S. cerevisiae
Method in brief: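 S. cerevisiae CEN.PK strains co-expressing a prenyltransferase and CBCAS variants, with or without MFalpha2/HDEL signal peptides, were grown in YEP galactose at 20 °C for 4 days with daily 1 mM olivetolic acid and galactose feeds. No pH 5.5 citrate step was applied. CBCA was quantified by LC-MS in methanol extracts.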

| Molecule | CBCAS activity / CBCA production [1] | Average CBCA (CBCA production) [µg/L] |
| --- | --- | --- |
| B1 | not found to be active | – |
| B2 | – | 39673.45 |
